From patent publication US20140356359A1 (RINAT NEUROSCIENCE, published 2014) come the findings set out here.

Where a chain is given by its changes, count along the chain named.

Assay [1] has as its target full-length cyno GHR on transfected HEK293 cells (cynomolgus monkey). The assay is described as follows: cell-based or functional assay.
Assay [2] deals with T1, human GHR (as in Tables 1 and 2) (human, UniProt P10912 49-253, limits assumed).
T1 sequence: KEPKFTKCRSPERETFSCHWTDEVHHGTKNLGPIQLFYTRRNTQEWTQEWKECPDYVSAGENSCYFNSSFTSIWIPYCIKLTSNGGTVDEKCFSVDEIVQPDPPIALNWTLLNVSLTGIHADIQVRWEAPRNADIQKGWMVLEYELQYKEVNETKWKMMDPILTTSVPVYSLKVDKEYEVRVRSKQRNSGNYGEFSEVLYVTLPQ
The assay is described as follows: Biacore, Fab, 25 C.

Assay [3] has as its target T1, human GHR (as in Tables 1 and 2). The assay can be described thus: Biacore, Fab, 37 C.
For assay [4] the target is unchanged. The assay is described as follows: Biacore, 25 C; 25 C (no asterisk).
For assay [5] the target is unchanged. The assay is described as follows: Biacore, IgG2ΔA, 25 C.
Assay [6] deals with T2, cyno GHR, his-tagged monomer of amino acids 31-235 of the extracellular domain (cynomolgus monkey, UniProt Q9XSZ1 49-253 (Papio anubis entry)).
T2 construct: not shown: his tag
T2 chain: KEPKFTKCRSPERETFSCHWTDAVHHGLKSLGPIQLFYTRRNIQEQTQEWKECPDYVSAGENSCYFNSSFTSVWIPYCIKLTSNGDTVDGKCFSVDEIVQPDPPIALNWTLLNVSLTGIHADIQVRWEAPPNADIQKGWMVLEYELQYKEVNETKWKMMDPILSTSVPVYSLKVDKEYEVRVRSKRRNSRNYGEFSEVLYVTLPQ
The assay can be described thus: Biacore 2000, antibody captured on anti-human Fc, GHR as analyte, 25 C, replicate. As for the experimental part: (§1) An anti-human Fc sensor chip was prepared by activating all flow cells of a Biacore™ CM4 sensor chip with a 1:1 (v/v) mixture of 400 mM ethyl-N-(3-[…])carbodiimide (EDC, Biacore™) and 100 mM N-hydroxysuccinimide (NHS, Biacore™) for 7 minutes, at a flow rate of 10 μL/min. […] All flow cells were blocked with 100 mM ethylenediamine in 150 mM borate buffer pH 8.5 for 7 minutes at 10 μL/min.
(§2) Antibodies were captured onto downstream flow cells (flow cells 2, 3 and 4) at 4 μg/mL at a flow rate of 10 μL/min for 1 minute. Different antibodies were captured on each flow cell. Flow cell 1 was used as a reference surface. Following capture of antibodies, analyte (buffer, human GHR or cyno GHR) was injected at 30 μL/min on all flow cells for two minutes. […] After the analyte injection, dissociation was monitored for 30 minutes (for the 400 nM GHR cycle) or 30 seconds (all other cycles) followed by regeneration of all flow cells with two 30-second injections of 75 mM phosphoric acid. A 5-membered dilution series of GHR was analyzed using this method, where the top concentration was 400 nM and the dilution factor was 3-fold. Buffer cycles were collected with both 30 minute and 30 second dissociation times for double-referencing purposes. The double-referenced sensorgrams were fit globally to a simple 1:1 Langmuir with mass transport binding model.
(§3) The experiments were performed at 25° C. using a running buffer of 10 mM HEPES, 150 mM NaCl, 0.05% (v/v) Tween-20™, pH 7.4.

The target of assay [7] is T3, human GHR, his-tagged monomer of amino acids 31-235 of the extracellular domain (human, UniProt P10912 49-253).
T3 construct: not shown: his tag
T3 sequence: T1 sequence
The description is as above. The protocol: as §1, §2, §3

Assay [8] deals with T2, cyno GHR, his-tagged monomer of amino …. The assay is described as follows: Biacore 2000, antibody captured on anti-human Fc, GHR as analyte, 25 C. The protocol: as §1, §2, §3
The target in assay [9] is T3, human GHR, his-tagged monomer of amino …. The description is as above. As for the experimental part: as §1, §2, §3
Assay [10] addresses T1, human GHR (as in Tables 1 and 2). The assay is described as follows: Biacore, 37 C (asterisk).
The target of assay [11] is T4, hGHR-hFc fusion protein (R&D Systems Catalog#1210-GR) (human, UniProt P10912 19-264).
T4 construct: bought; also called hGHR/Fc; human GHR/hFc; not shown: human Fc of the bought fusion protein
T4 sequence: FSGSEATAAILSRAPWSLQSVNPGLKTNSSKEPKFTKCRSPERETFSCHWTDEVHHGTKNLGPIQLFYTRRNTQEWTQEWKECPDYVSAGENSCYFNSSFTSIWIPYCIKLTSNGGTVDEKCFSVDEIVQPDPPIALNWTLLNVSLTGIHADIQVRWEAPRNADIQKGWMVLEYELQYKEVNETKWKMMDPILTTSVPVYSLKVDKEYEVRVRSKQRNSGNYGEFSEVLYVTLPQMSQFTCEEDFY
The assay is described as follows: Biacore T200, hGHR-hFc captured on anti-human Fc, Fab as analyte, 37 C. The protocol: An anti-human Fc sensor chip was prepared by activating all flow cells of a Biacore™ CM4 sensor chip with a 1:1 (v/v) mixture of 400 mM EDC and 100 mM NHS for 7 minutes, at a flow rate of 10 μL/min. […] All flow cells were blocked with 100 mM ethylenediamine in 150 mM borate buffer pH 8.5 for 7 minutes at 10 μL/min.
The kinetics assay was run using a methodology with varying dissociation times as described in Katsamba et al., supra. […] Flow cell 1 was used as a reference surface. Following capture of hGHR-hFc, analyte (buffer, SS1 Fab or Ab13 Fab) was injected at 30 μL/min on all flow cells for two minutes. After the analyte injection, dissociation was monitored for 30 minutes (400 nM Fab cycle) or 60 seconds (all other cycles) followed by regeneration with two 30-second injections of 75 mM phosphoric acid. A 5-membered dilution series of Fab was analyzed using this method, where the top concentration was 400 nM and the dilution factor was 3-fold. Buffer cycles were collected at both 30 minute and 60 second dissociation times for double-referencing purposes. The double-referenced sensorgrams were fit globally to a simple 1:1 Langmuir with mass transport binding model (with a local Rmax parameter for each flow cell).
(§4) The experiments were performed at 37° C. using a running buffer of 10 mM HEPES, 150 mM NaCl, 0.05% (v/v) Tween-20™, pH 7.4.

The target of assay [12] is T2, cyno GHR, his-tagged monomer of amino …. The assay is described as follows: Biacore T200, Fab captured on anti-human kappa, GHR as analyte, 37 C. The protocol:
(§5) An anti-human kappa sensor chip was prepared by activating all flow cells of a Biacore™ CM4 sensor chip with a 1:1 (v/v) mixture of 400 mM EDC and 100 mM NHS for 7 minutes, at a flow rate of 10 μL/min. […] All flow cells were blocked with 100 mM ethylenediamine in 150 mM borate buffer pH 8.5 for 7 minutes at 10 μL/min.
(§6) The kinetics assay was run using a methodology with varying dissociation times as described in Katsamba et al., supra. Fabs were captured onto downstream flow cells (flow cells 2, 3 and 4) at 2 μg/mL at a flow rate of 10 μL/min for 2 minutes. Different Fabs were captured on each flow cell. Flow cell 1 was used as a reference surface. Following capture of fabs, analyte (buffer, human GHR or cyno GHR) was injected at 30 μL/min on all flow cells for two minutes. […] A 6-membered dilution series of GHR was analyzed using this method, where the top concentration was 400 nM and the dilution factor was 3-fold. Buffer cycles were collected with both 30 minute and 60 second dissociation times for double-referencing purposes. The double-referenced sensorgrams were fit globally to a simple 1:1 Langmuir with mass transport binding model.
as §4

The target of assay [13] is T3, human GHR, his-tagged monomer of amino …. The assay is described as above. As for the experimental part: as §5, §6, §4

Chain of full-length cyno GHR on transfected HEK293 cells (cynomolgus monkey) (Q9XSZ1 other isoform, or with tags, fused parts or gaps limits assumed): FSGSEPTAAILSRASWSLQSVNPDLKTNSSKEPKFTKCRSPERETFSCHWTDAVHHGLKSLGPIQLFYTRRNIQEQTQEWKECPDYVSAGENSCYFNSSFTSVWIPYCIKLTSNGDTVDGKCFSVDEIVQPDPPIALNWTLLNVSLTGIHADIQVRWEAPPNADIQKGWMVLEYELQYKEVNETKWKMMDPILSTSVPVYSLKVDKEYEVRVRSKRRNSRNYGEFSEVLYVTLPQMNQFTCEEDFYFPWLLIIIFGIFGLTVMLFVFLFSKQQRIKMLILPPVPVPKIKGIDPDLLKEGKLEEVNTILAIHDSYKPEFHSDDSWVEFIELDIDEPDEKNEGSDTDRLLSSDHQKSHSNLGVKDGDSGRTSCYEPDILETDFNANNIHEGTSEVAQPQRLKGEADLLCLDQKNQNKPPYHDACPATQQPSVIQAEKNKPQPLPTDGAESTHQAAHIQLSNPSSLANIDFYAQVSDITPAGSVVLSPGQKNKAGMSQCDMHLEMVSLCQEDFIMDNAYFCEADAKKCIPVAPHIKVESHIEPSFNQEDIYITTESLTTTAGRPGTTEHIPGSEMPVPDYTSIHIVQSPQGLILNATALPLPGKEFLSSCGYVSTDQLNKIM

Turning to “human growth hormone (from UniProt P01241 27-217) (ligand)”, in [1], the STAT5 phosphorylation, fluorescent signal (Ave); 4.5 nM GH (fluorescent signal) came to 562 and the STAT5 phosphorylation, fluorescent signal (ave); 4.5 nM GH (fluorescent signal) amounted to 847.

B1: SS4 Fab (Fab, V domains shown)
VH: EVQLVESGGGLVKPGGSLRLSCAASGFTFSDAWMDWVRQAPGKGLEWVAEIRSKANNHATYYAESVKGRFTISRDDSKNTLYLQMNSLKTEDTAVYYCTLYRDYWGQGTLVTVSS
VL: EIVLTQSPGTLSLSPGERATLSCTATSSVSSSYLHWYQQKPGQAPRLLIYSTSNLASGIPDRFSGSGSGTDFTLTISRLEPEDFAVYYCHQYHRSTPTFGGGTKVEIK
notes: Fab
With B1, the Kd in assay [2] is 28.4 nM; in [3] it was 124 nM; in [4] it was 28.4 nM.

B2: SS4 IgG2ΔA (antibody, V domains shown)
VH: B1 VH
VL: B1 VL
notes: IgG2ΔA
Molecule B2 yielded a Kd in assay [5] of 43.1 nM.

B3: SS1 hIgG2Δa (antibody, V domains shown)
VH: B1 VH with N57Y, Y101I
VL: EIVLTQSPGTLSLSPGERATLSCTATSSVSSSYLNWYQQKPGQAPRLLIYSTSNLASGIPDRFSGSGSGTDFTLTISRLEPEDFAVYYCHQYHRSTPTFGGGTKVEIKR
notes: humanized IgG; also called SS1 (replicate)
Regarding B3, in [6], the Kd came out at 1.2 nM, the koff was 0.00011 s⁻¹, the kon amounted to 89000 M⁻¹ s⁻¹ and the “t 1/2” value amounted to 1.78 h. Besides, in assay [7], binding was characterised by a dissociation constant (Kd) of 0.8 nM, the off-rate (koff) was 6.4e-05 s⁻¹, the kon was found to be 77000 M⁻¹ s⁻¹ and the “t 1/2” value stood at 3 h. Further, in assay [8], binding was put at a Kd of 1.3 nM, the koff is 0.0001 s⁻¹, the kon was determined as 81000 M⁻¹ s⁻¹ and the “t 1/2” value is 1.85 h. Also, in assay [9], the equilibrium dissociation constant (Kd) worked out at 1 nM, the koff came to 7.7e-05 s⁻¹, the on-rate constant (kon) was found to be 74000 M⁻¹ s⁻¹ and the “t 1/2” value worked out at 2.5 h.

B4: SS3 hIgG2Δa (antibody, V domains shown)
VH: B1 VH with Y101F
VL: B3 VL with S95F
notes: also called SS3 IgG2ΔA
On to B4, for which binding in [5] was characterised by a dissociation constant (Kd) of 1.7 nM.

B5: TM9 Fab (Fab, V domains shown)
VH: B1 VH with N57Y, Y101I
VL: B1 VL with S95G
notes: Fab
For B5, the Kd in [3] and in [10] was 3.3 nM each time.

B6: TM1 Fab (Fab, V domains shown)
VH: B1 VH with N57Y, Y101I
VL: B1 VL with S32W
notes: Fab
For the molecule B6, the Kd in [3] and in [10] was 3.4 nM throughout.

B7: SS3 Fab (Fab, V domains shown)
VH: B1 VH with Y101F
VL: B1 VL with H35N, S95F
notes: Fab
Turning to B7, the Kd in assay [3] and in assay [10] was 1.99 nM each time.

B8: SS1 Fab (Fab, V domains shown)
VH: B1 VH with N57Y, Y101I
VL: B1 VL with H35N
notes: Fab
In the case of B8, the Kd in assay [11] turned out to be 1 nM; in [3] it was 1.6 nM; in assay [12], 3.2 nM; in assay [13], 1.6 nM; in assay [10] it was 1.56 nM. Moreover, the off-rate (koff) stood at 0.000359 s⁻¹ in assay [11], 0.000576 s⁻¹ in [12] and 0.000215 s⁻¹ in assay [13]. The kon in assay [11] was found to be 374000 M⁻¹ s⁻¹; in assay [12], 182000 M⁻¹ s⁻¹; in assay [13] it was 138000 M⁻¹ s⁻¹. Further, the “t 1/2” value amounted to 0.537 h in assay [11], 0.333 h in assay [12] and 0.895 h in [13].
